Drawing on paper PMC4157451, this text covers stoichiometry N for 1 molecule.

The assay concerns the target T1, PvuRts1I, Q52612.
T1 chain: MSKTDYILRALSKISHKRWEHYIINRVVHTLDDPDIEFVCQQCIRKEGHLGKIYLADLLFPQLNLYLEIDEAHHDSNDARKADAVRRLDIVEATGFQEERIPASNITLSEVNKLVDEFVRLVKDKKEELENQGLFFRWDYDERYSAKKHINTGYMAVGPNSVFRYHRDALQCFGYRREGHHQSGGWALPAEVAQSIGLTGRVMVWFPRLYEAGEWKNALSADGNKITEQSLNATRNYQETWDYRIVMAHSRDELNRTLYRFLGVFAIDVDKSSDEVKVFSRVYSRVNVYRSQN
Briefly: SEC; size-exclusion chromatography of purified PvuRts1I; single peak, apparent molecular weight 89 kDa against a theoretical 34 kDa. Particulars: remark: other sources report otherwise.

B1: PvuRts1I, Q52612 1-293 (enzyme)
chain: T1 chain
For the molecule B1, the stoichiometry N was 2.
